# B1: Sarcoplasmic reticulum histidine-rich calcium-binding protein (Homo sapiens), P23327 (parent)
# chain: MGHHRPWLHASVLWAGVASLLLPPAMTQQLRGDGLGFRNRNNSTGVAGLSEEASAELRHHLHSPRDHPDENKDVSTENGHHFWSHPDREKEDEDVSKEYGHLLPGHRSQDHKVGDEGVSGEEVFAEHGGQARGHRGHGSEDTEDSAEHRHHLPSHRSHSHQDEDEDEVVSSEHHHHILRHGHRGHDGEDDEGEEEEEEEEEEEEASTEYGHQAHRHRGHGSEEDEDVSDGHHHHGPSHRHQGHEEDDDDDDDDDDDDDDDDVSIEYRHQAHRHQGHGIEEDEDVSDGHHHRDPSHRHRSHEEDDNDDDDVSTEYGHQAHRHQDHRKEEVEAVSGEHHHHVPDHRHQGHRDEEEDEDVSTERWHQGPQHVHHGLVDEEEEEEEITVQFGHYVASHQPRGHKSDEEDFQDEYKTEVPHHHHHRVPREEDEEVSAELGHQAPSHRQSHQDEETGHGQRGSIKEMSHHPPGHTVVKDRSHLRKDDSEEEKEKEEDPGSHEEDDESSEQGEKGTHHGSRDQEDEEDEEEGHGLSLNQEEEEEEDKEEEEEEEDEERREERAEVGAPLSPDHSEEEEEEEEGLEEDEPRFTIIPNPLDRREEAGGASSEEESGEDTGPQDAQEYGNYQPGSLCGYCSFCNRCTECESCHCDEENMGEHCDQCQHCQFCYLCPLVCETVCAPGSYVDYFSSSLYQALADMLETPEP
# partner: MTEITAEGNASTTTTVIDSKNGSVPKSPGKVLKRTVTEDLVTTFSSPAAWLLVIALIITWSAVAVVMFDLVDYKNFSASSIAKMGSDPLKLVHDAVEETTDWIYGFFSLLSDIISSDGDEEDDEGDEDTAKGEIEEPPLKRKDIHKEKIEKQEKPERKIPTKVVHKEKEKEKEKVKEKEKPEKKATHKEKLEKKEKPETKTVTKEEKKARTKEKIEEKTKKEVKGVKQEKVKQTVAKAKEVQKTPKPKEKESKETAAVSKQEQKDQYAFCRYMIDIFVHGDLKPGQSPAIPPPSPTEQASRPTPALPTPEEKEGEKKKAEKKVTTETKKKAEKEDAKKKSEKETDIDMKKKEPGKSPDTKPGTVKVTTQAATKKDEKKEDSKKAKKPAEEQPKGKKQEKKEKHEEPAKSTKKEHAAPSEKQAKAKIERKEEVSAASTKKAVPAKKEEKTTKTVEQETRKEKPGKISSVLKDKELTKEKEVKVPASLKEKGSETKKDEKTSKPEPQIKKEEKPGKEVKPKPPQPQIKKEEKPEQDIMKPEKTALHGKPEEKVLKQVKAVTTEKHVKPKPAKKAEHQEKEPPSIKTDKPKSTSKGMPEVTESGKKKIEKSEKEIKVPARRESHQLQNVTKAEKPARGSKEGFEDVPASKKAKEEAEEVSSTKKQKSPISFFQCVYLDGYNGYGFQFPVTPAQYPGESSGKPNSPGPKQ
# B2: Sarcoplasmic reticulum histidine-rich calcium-binding protein (Homo sapiens), P23327 (parent)
# chain: B1 chain
# partner: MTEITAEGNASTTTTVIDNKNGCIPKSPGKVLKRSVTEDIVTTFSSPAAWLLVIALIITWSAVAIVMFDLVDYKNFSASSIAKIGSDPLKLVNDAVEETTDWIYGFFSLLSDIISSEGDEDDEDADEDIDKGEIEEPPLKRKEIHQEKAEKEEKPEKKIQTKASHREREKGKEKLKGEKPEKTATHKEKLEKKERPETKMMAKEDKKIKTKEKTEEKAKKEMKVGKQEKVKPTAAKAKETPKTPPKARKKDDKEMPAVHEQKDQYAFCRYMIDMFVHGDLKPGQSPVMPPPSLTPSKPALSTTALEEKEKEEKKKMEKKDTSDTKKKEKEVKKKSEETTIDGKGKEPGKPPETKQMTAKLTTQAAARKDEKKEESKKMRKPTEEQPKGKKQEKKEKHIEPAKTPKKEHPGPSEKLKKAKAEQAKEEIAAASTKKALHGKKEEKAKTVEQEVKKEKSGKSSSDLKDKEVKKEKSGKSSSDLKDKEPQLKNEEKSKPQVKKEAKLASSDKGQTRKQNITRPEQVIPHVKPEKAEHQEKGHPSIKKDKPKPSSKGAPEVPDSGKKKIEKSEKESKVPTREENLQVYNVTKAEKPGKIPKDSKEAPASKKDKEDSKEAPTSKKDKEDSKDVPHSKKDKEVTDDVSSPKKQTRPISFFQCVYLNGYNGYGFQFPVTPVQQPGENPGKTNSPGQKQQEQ
# Variants of: B1
# Details: with trdn_rabit TRDN
row,Variant,effect of a mutation on the interaction
1,S96A,decreasing interaction

# Variants of: B2
# Details: with trdn_mouse Trdn
row,Variant,effect of a mutation on the interaction
1,S96A,decreasing interaction
